Non-standard residues stand in square brackets, D forms with d. No end group written: not given here. Sta = CC(C)C[C@H](N)[C@@H](O)CC(=O)O
Biological target: T1, CHO cell expressed recombinant human beta secretase proteolytically cleaved with HIV protease (human, UniProt P56817 61-453, glycosylated (CHO cell expressed))
T1 construct: N-terminus at V40 after cleavage of the F39-V40 bond; The transmembrane and cytoplasmic domains are deleted; also called HIV protease treated beta secretase; processed enzyme
T1 sequence (P56817 other isoform, or with tags, fused parts or gaps): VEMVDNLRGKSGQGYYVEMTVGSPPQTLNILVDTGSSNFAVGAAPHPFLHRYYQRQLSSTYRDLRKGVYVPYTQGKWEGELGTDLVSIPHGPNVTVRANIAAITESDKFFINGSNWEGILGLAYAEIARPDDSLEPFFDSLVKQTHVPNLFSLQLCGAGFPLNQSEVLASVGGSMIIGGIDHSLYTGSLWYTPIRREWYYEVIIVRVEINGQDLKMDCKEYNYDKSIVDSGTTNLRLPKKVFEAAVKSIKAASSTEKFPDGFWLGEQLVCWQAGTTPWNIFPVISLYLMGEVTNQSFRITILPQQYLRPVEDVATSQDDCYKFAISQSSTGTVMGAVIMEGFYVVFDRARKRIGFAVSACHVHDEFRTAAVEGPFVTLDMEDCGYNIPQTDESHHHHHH
Assay: affinity chromatography, peptide immobilised on resin

Question: Does SEVN[Sta]VAEFRGGC (also: coupled to Sulfolink resin (via Cys)) [synthetic peptide Ser-Glu-Val-Asn-Sta-Val-Ala-Glu-Phe-Arg-Gly-Gly-Cys (Sta=statine)] bind?
Answer: Result: binds

Reference: patent US7384773 (Pfizer, dated 2008)
